# Source: IntAct's records for PubMed 29892012
# B1: Ribosome production factor 1 (Homo sapiens), Q9H9Y2 (parent)
# chain: MAKAGDKSSSSGKKSLKRKAAAEELQEAAGAGDGATENGVQPPKAAAFPPGFSISEIKNKQRRHLMFTRWKQQQRKEKLAAKKKLKKEREALGDKAPPKPVPKTIDNQRVYDETTVDPNDEEVAYDEATDEFASYFNKQTSPKILITTSDRPHGRTVRLCEQLSTVIPNSHVYYRRGLALKKIIPQCIARDFTDLIVINEDRKTPNGLILSHLPNGPTAHFKMSSVRLRKEIKRRGKDPTEHIPEIILNNFTTRLGHSIGRMFASLFPHNPQFIGRQVATFHNQRDYIFFRFHRYIFRSEKKVGIQELGPRFTLKLRSLQKGTFDSKYGEYEWVHKPREMDTSRRKFHL
# partner: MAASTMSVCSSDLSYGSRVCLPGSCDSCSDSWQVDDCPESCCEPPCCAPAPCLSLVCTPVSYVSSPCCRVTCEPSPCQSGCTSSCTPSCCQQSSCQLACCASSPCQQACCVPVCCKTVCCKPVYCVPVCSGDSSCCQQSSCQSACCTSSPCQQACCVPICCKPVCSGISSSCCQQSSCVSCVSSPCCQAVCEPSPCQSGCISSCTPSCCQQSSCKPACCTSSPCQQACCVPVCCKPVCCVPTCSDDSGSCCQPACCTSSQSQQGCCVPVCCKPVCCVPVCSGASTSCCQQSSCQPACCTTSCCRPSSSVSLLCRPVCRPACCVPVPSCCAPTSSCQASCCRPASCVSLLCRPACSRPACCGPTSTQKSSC
# B2: E3 ubiquitin-protein ligase LNX (Homo sapiens), Q8TBB1 (parent)
# chain: MNQPESANDPEPLCAVCGQAHSLEENHFYSYPEEVDDDLICHICLQALLDPLDTPCGHTYCTLCLTNFLVEKDFCPMDRKPLVLQHCKKSSILVNKLLNKLLVTCPFREHCTQVLQRCDLEHHFQTSCKGASHYGLTKDRKRRSQDGCPDGCASLTATAPSPEVSAAATISLMTDEPGLDNPAYVSSAEDGQPAISPVDSGRSNRTRARPFERSTIRSRSFKKINRALSVLRRTKSGSAVANHADQGRENSENTTAPEVFPRLYHLIPDGEITSIKINRVDPSESLSIRLVGGSETPLVHIIIQHIYRDGVIARDGRLLPGDIILKVNGMDISNVPHNYAVRLLRQPCQVLWLTVMREQKFRSRNNGQAPDAYRPRDDSFHVILNKSSPEEQLGIKLVRKVDEPGVFIFNVLDGGVAYRHGQLEENDRVLAINGHDLRYGSPESAAHLIQASERRVHLVVSRQVRQRSPDIFQEAGWNSNGSWSPGPGERSNTPKPLHPTITCHEKVVNIQKDPGESLGMTVAGGASHREWDLPIYVISVEPGGVISRDGRIKTGDILLNVDGVELTEVSRSEAVALLKRTSSSIVLKALEVKEYEPQEDCSSPAALDSNHNMAPPSDWSPSWVMWLELPRCLYNCKDIVLRRNTAGSLGFCIVGGYEEYNGNKPFFIKSIVEGTPAYNDGRIRCGDILLAVNGRSTSGMIHACLARLLKELKGRITLTIVSWPGTFL
# partner: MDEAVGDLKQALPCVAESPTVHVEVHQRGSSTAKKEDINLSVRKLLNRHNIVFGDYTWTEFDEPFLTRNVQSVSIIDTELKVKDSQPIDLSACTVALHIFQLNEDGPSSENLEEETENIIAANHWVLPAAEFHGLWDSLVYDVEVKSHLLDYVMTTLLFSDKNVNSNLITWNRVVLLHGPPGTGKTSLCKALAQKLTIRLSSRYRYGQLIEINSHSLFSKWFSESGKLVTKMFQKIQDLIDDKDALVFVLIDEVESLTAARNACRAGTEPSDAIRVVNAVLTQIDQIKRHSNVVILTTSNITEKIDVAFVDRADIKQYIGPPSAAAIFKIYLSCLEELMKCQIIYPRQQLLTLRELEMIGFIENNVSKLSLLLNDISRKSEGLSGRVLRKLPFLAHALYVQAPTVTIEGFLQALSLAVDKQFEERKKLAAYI
# B3: Abl interactor 2 (Homo sapiens), Q9NYB9 (parent)
# chain: MAELQMLLEEEIPGGRRALFDSYTNLERVADYCENNYIQSADKQRALEETKAYTTQSLASVAYLINTLANNVLQMLDIQASQLRRMESSINHISQTVDIHKEKVARREIGILTTNKNTSRTHKIIAPANLERPVRYIRKPIDYTILDDIGHGVKWLLRFKVSTQNMKMGGLPRTTPPTQKPPSPPMSGKGTLGRHSPYRTLEPVRPPVVPNDYVPSPTRNMAPSQQSPVRTASVNQRNRTYSSSGSSGGSHPSSRSSSRENSGSGSVGVPIAVPTPSPPSVFPAPAGSAGTPPLPATSASAPAPLVPATVPSSTAPNAAAGGAPNLADGFTSPTPPVVSSTPPTGHPVQFYSMNRPASRHTPPTIGGSLPYRRPPSITSQTSLQNQMNGGPFYSQNPVSDTPPPPPPVEEPVFDESPPPPPPPEDYEEEEAAVVEYSDPYAEEDPPWAPRSYLEKVVAIYDYTKDKEDELSFQEGAIIYVIKKNDDGWYEGVMNGVTGLFPGNYVESIMHYSE
# partner: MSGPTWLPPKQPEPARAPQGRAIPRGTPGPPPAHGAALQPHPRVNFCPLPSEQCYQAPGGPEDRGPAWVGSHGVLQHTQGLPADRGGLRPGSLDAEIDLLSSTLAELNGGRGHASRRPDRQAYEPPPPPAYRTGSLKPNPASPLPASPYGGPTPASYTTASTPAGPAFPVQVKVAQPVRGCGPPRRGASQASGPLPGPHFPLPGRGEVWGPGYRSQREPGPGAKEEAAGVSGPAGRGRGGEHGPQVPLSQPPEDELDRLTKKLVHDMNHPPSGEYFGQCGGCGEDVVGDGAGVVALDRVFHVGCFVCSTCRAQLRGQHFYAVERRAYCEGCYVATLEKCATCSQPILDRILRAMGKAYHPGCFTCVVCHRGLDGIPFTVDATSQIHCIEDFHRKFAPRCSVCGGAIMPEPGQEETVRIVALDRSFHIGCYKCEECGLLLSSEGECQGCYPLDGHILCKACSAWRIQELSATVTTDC
# B4: Abl interactor 2 (Homo sapiens), Q9NYB9 (parent)
# chain: B3 chain
# partner: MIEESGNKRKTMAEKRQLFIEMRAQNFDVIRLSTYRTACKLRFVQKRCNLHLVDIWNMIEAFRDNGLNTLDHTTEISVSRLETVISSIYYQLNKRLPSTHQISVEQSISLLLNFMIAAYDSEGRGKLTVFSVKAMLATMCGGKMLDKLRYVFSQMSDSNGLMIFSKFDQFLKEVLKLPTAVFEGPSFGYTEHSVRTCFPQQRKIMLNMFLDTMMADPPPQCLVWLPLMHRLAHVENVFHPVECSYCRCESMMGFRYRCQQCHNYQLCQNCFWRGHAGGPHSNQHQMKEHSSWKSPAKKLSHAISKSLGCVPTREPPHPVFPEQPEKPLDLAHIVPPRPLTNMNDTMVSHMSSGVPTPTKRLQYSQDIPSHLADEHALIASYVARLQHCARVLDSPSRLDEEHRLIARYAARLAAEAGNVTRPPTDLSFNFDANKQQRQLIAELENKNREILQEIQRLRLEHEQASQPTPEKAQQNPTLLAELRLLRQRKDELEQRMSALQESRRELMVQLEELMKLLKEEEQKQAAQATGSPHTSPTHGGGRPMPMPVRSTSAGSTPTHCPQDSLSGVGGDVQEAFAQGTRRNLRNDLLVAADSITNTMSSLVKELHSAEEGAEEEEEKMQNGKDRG
# B5: Late cornified envelope protein 1B (Homo sapiens), Q5T7P3 (parent)
# chain: MSCQQNQQQCQPPPKCIPKCPPKCLTPRCPPKCPPKCPPVSSCCSVSSGGCCGSSSGGSCGSSSGGCCSSGGGGCCLSHHRRRRSHCHRPQSSGCCSQPSGGSSCCGGGSGQHSGGCC
# partner: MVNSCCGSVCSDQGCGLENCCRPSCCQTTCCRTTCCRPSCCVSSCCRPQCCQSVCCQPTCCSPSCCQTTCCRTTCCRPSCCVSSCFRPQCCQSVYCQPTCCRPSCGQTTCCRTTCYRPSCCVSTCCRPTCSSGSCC
# Variants of: B1
# Conditions: with kr107_human KRTAP10-7, P60409
row,Variant,effect of a mutation on the interaction
1,P49T,with no effect

# Variants of: B2
# Conditions: with pch2_human TRIP13, Q15645
row,Variant,effect of a mutation on the interaction
1,E295K,disrupting interaction strength

# Variants of: B3
# Conditions: with trip6_human TRIP6, Q15654
row,Variant,effect of a mutation on the interaction
1,R373C,with no effect

# Variants of: B3
# Conditions: with trip6_human TRIP6, Q15654
# Remark: another data set of the same source
row,Variant,effect of a mutation on the interaction
1,E202K,with no effect

# Variants of: B4
# Conditions: with dtnb_human DTNB
row,Variant,effect of a mutation on the interaction
1,R373C,with no effect

# Variants of: B4
# Conditions: with dtnb_human DTNB
# Remark: another data set of the same source
row,Variant,effect of a mutation on the interaction
1,E202K,with no effect

# Variants of: B5
# Conditions: with kra42_human KRTAP4-2, Q9BYR5
row,Variant,effect of a mutation on the interaction
1,C16Y,with no effect
